Source: the MegaScale stability set (Tsuboyama et al. 2023)

B1: EEHEE_rd4_0003 (parent)
chain: KKVTINGVEIKFNNPEEAVKFALELAKRLNLRIEFHGDQIKIE

Variants of: B1
Assay: folding stability dG (cDNA display proteolysis); higher = more stable
Settings: PBS, room temperature

Variant | folding stability dG
KKVTINGVEIKFNNPEEAMKFALELAKRLNLRIEFHGDQIKIE | 2.94 kcal/mol
KKVTINGVEIKFNNPEEAFKFALELAKRLNLRIEFHGDQIKIE | 2.75 kcal/mol
KKVTINGVEIKFNNPEEAYKFALELAKRLNLRIEFHGDQIKIE | 2.85 kcal/mol
KKVTINGVEIKFNNPEEAHKFALELAKRLNLRIEFHGDQIKIE | 2.21 kcal/mol
KKVTINGVEIKFNNPEEAPKFALELAKRLNLRIEFHGDQIKIE | 1.04 kcal/mol
KKVTINGVEIKFNNPEEAWKFALELAKRLNLRIEFHGDQIKIE | 2.98 kcal/mol
KKVTINGVEIKFNNPEEASKFALELAKRLNLRIEFHGDQIKIE | 1.86 kcal/mol
KKVTINGVEIKFNNPEEATKFALELAKRLNLRIEFHGDQIKIE | 2.22 kcal/mol
KKVTINGVEIKFNNPEEAIKFALELAKRLNLRIEFHGDQIKIE | 2.9 kcal/mol
KKVTINGVEIKFNNPEEAKKFALELAKRLNLRIEFHGDQIKIE | 2.33 kcal/mol
KKVTINGVEIKFNNPEEARKFALELAKRLNLRIEFHGDQIKIE | 2.5 kcal/mol
KKVTINGVEIKFNNPEEALKFALELAKRLNLRIEFHGDQIKIE | 3.07 kcal/mol
KKVTINGVEIKFNNPEEAGKFALELAKRLNLRIEFHGDQIKIE | 1.54 kcal/mol
KKVTINGVEIKFNNPEEANKFALELAKRLNLRIEFHGDQIKIE | 1.83 kcal/mol
KKVTINGVEIKFNNPEEAQKFALELAKRLNLRIEFHGDQIKIE | 2.06 kcal/mol
KKVTINGVEIKFNNPEEAVKFHLELAKRLNLRIEFHGDQIKIE | 1.32 kcal/mol
KKVTINGVEIKFNNPEEAVKFGLELAKRLNLRIEFHGDQIKIE | 1.58 kcal/mol
KKVTINGVEIKFNNPEEAVKFDLELAKRLNLRIEFHGDQIKIE | 0.407 kcal/mol
KKVTINGVEIKFNNPEEAVKFFLELAKRLNLRIEFHGDQIKIE | 2.74 kcal/mol
KKVTINGVEIKFNNPEEAVKFILELAKRLNLRIEFHGDQIKIE | 3.21 kcal/mol

Variant | folding stability dG
KKVTINGVEIKFNNPEEAVKFELELAKRLNLRIEFHGDQIKIE | 0.979 kcal/mol
KKVTINGVEIKFNNPEEAVKFCLELAKRLNLRIEFHGDQIKIE | 2.79 kcal/mol
KKVTINGVEIKFNNPEEAVKVALELAKRLNLRIEFHGDQIKIE | 1.74 kcal/mol
KKVTINGVEIKFNNPEEAVKDALELAKRLNLRIEFHGDQIKIE | 0.978 kcal/mol
KKVTINGVEIKFNNPEEAVKKALELAKRLNLRIEFHGDQIKIE | 1.66 kcal/mol
KKVTINGVEIKFNNPEEAVKCALELAKRLNLRIEFHGDQIKIE | 3.19 kcal/mol
KKVTINGVEIKFNNPEEAVKMALELAKRLNLRIEFHGDQIKIE | 1.88 kcal/mol
KKVTINGVEIKFNNPEEAVKLALELAKRLNLRIEFHGDQIKIE | 2.03 kcal/mol
KKVTINGVEIKFNNPEEAVKYALELAKRLNLRIEFHGDQIKIE | 2.49 kcal/mol
KKVTINGVEIKFNNPEEAVKGALELAKRLNLRIEFHGDQIKIE | 1.16 kcal/mol
KKVTINGVEIKFNNPEEAVKPALELAKRLNLRIEFHGDQIKIE | 0.505 kcal/mol
KKVTINGVEIKFNNPEEAVKHALELAKRLNLRIEFHGDQIKIE | 1.52 kcal/mol
KKVTINGVEIKFNNPEEAVKIALELAKRLNLRIEFHGDQIKIE | 2.03 kcal/mol
KKVTINGVEIKFNNPEEAVKRALELAKRLNLRIEFHGDQIKIE | 1.76 kcal/mol
KKVTINGVEIKFNNPEEAVKAALELAKRLNLRIEFHGDQIKIE | 1.85 kcal/mol
KKVTINGVEIKFNNPEEAVKWALELAKRLNLRIEFHGDQIKIE | 2.81 kcal/mol
KKVTINGVEIKFNNPEEAVKNALELAKRLNLRIEFHGDQIKIE | 1.27 kcal/mol
KKVTINGVEIKFNNPEEAVKTALELAKRLNLRIEFHGDQIKIE | 1.56 kcal/mol
KKVTINGVEIKFNNPEEAVKQALELAKRLNLRIEFHGDQIKIE | 1.57 kcal/mol
KKVTINGVEIKFNNPEEAVKSALELAKRLNLRIEFHGDQIKIE | 1.47 kcal/mol

Variant | folding stability dG
KKVTINGVEIKFNNPEEAVKEALELAKRLNLRIEFHGDQIKIE | 1.35 kcal/mol
KKVTINGVEIKFNNPEEAVHFALELAKRLNLRIEFHGDQIKIE | 2.2 kcal/mol
KKVTINGVEIKFNNPEEAVRFALELAKRLNLRIEFHGDQIKIE | 2.81 kcal/mol
KKVTINGVEIKFNNPEEAVAFALELAKRLNLRIEFHGDQIKIE | 2.64 kcal/mol
KKVTINGVEIKFNNPEEAVPFALELAKRLNLRIEFHGDQIKIE | 1.69 kcal/mol
KKVTINGVEIKFNNPEEAVIFALELAKRLNLRIEFHGDQIKIE | 2.38 kcal/mol
KKVTINGVEIKFNNPEEAVMFALELAKRLNLRIEFHGDQIKIE | 2.44 kcal/mol
KKVTINGVEIKFNNPEEAVTFALELAKRLNLRIEFHGDQIKIE | 2.24 kcal/mol
KKVTINGVEIKFNNPEEAVEFALELAKRLNLRIEFHGDQIKIE | 2.28 kcal/mol
KKVTINGVEIKFNNPEEAVQFALELAKRLNLRIEFHGDQIKIE | 2.44 kcal/mol
KKVTINGVEIKFNNPEEAVGFALELAKRLNLRIEFHGDQIKIE | 1.77 kcal/mol
KKVTINGVEIKFNNPEEAVFFALELAKRLNLRIEFHGDQIKIE | 2.51 kcal/mol
KKVTINGVEIKFNNPEEAVSFALELAKRLNLRIEFHGDQIKIE | 2.24 kcal/mol
KKVTINGVEIKFNNPEEAVDFALELAKRLNLRIEFHGDQIKIE | 1.93 kcal/mol
KKVTINGVEIKFNNPEEAVCFALELAKRLNLRIEFHGDQIKIE | 3.78 kcal/mol
KKVTINGVEIKFNNPEEAVNFALELAKRLNLRIEFHGDQIKIE | 2.13 kcal/mol
KKVTINGVEIKFNNPEEAVLFALELAKRLNLRIEFHGDQIKIE | 2.49 kcal/mol
KKVTINGVEIKFNNPEEAVYFALELAKRLNLRIEFHGDQIKIE | 2.47 kcal/mol
KKVTINGVEIKFNNPEEAVVFALELAKRLNLRIEFHGDQIKIE | 2.2 kcal/mol
